Experiment: soluble on expression in E. coli; label from the status in PepcDB or PDB records

Sequence	soluble on expression in E. coli
MSTGANRILDDLARLMTDAAGAAQGVRREVEAAFRAQTENWLNSLDVVKREEFEAVKEMAARARDENDALLARIEALEARLAATGPAAADITTGK	not soluble
GSMDPSGVKVLETAEDIQERRQQVLDRYHRFKELSTLRRQKLEDSYRFQFFQRDAEELEKWIQEKLQIASDENYKDPTNLQGKLQKHQAFEAEVQANSGAIVKLDETGNLMISEGHFASETIRTRLMELHRQWELLLEKMREKGIKLLQ	soluble
MSEGSNVLVSIILVNYNGADILPDCLNSIDKFISKDNCEILLVDNASQDNSYELVAQDFPDVKIVRLPKNYGFGAGNNAGAKIAKGKFLLLLNTDTILTTNILPHLIDLMRENPDVGIIGTKLVFPDETFQISFAYTIGIKGEYKSRKLHEYAEDKSKLNSLEQEFNTIKEVDIVVGAALFIRADLFHSVGGFDEKFFIYFEDADLCRRVQNQGYKILYTPQVSLIHIRGHSMKKNANATVLEHHHHHH	not soluble
AIAEPGSPAGAGAEAPAFYSERKLSRKQLKKLAKAEREYEEERRKELEAAQAVDTAQKRELARIESILRTHALRMEYVEPDGHCLFRALVRQLRPLIQSGLFDTYFPAADTETRSALLTWSTIPDEMEAVWLLRKTLASFIRRRGTEFFPFIVGELDPQGTLLDASDDPAERVAQYCARLEDGTLWGGQPELQAVALALRCRVFVFADPEILPNGMLVMGADDASTDTGAESVTALRVSFHKQFFSLGEHYHAVVPADDSRGDARDPRISAS	soluble
MSTLIECGASPFIPGFALKDVRLENGLTVRVAIGGSGSPLVLLHGHPQNHTTWRKVAPTLAQNHTVILPDLRGYGDSDKPTSDPAHRTYSKRTMAQDIVMLMDALGFSRFAFVGHDRGGRVGHRLALDYPDRVTCCTFIDIAPTATMYALTDKSFATRYFWWFFLIQPFPLPETMIAHDPAFFLRKHISGQLKIEGATSQEAFNEYLRCYQNPEMIHAICEDYRAAATIDLDDDAADTSARIRCPLQLLWGGLGTVGQLYNVVGTWKEKALNVQGEALPCGHSPQEECPEYFIQKLQSFLHSVL	soluble
LPIQARPRRNRKNRAVRQLVQENLVKPSSLIYPLFVHDEETSVPIPSMPGQSRLSMEDLLKEVGEARSYGIKAFMLFPKVDDELKSVMAEESYNPDGLLPRAIMALKEAFPDVLLLADVALDPYSSMGHDGVVDEQSGKIVNDLTVHQLCKQAITLARAGADMVCPSDMMDGRVSAIRESLDMEGCTDTSILAYSCKYASSFYGPFRDALDSHMVGGTDKKTYQMDPSNSREAEREAEADASEGADMLMVKPGLPYLDVLAKIREKSKLPMVAYHVSGEYAMLKAAAEKGYISEKDTVLEVLKSFRRAGADAVATYYAKEAAKWMVEDMKGTQKFTEPCY	soluble
MERVAPNGQFKDVGVDQLFFSTTDAQGRIQETNNTFVELSRYTEEELRNAAHNIIRHPFMPGGVFKIMWDKLQRGETFAGYVRNLAHSGETYDVFATVTPIPGTHDYLSVRQRPCHDDHRALAMTIYAEVGDYEAQLRKDGMSAREAAEAGAGLIGDKLRESGFDNFDAYAHAMLPWEVFCRENMSTGLPQREVAGDLGTELAQAHDVHDHLDEWMLRLDELLTTAQQLGEAREELVDSLGQTSSLGDTIDARSASETLQIVQFQLNVWKGMQKIVDSYVVELAELITTLANDTLRERFQISVSRLHTAMLATFLAELIDGTSATANTEHKVALLKATMRDSLEAIDRGAFHRAQLVRSTISCIRTVTSLMESPRSLLTEAIREAQSLNNDELSAAIATELERSERAANNMHQLVATLESTATTPDIAAMLAEL	not soluble
MGSDKIHHHHHHMNQQPEQITALYCRLSRDDELQGDSNSIVNQKSILSKYAEEHRLLNTRFFIDDGVSGTTFDRPGLNEMLALIDEEKVSTVIVKDMSRLGRDYLKVGLLTEIQLPEKGVRFIAINDGVDSNQGVSEFIAFRNVINEWYAKDTSKKIKAVFTAKGQSGKPLSTFPPYGYIKDPEDKNRWIVDEAAAEVVREIFRLCMEGNGPTKIARILSERRVLIPSAYAKSNGRSAPADVPADRCKWCDSTVAHILERKEYLGHTVNFKTYKESFRNKKQRKNPKENQMVFENTHQPIIEQDVWDTVQQLR	not soluble
QYYDYDFPLSIYGQSSPNCAPECNCPESYPSAMYCDELKLKSVPMVPPGIKYLYLRNNQIDHIDEKAFENVTDLQWLILDHNLLENSKIKGRVFSKLKQLKKLHINHNNLTESVGPLPKSLEDLQLTHNKITKLGSFEGLVNLTFIHLQHNRLKEDAVSAAFKGLKSLEYLDLSFNQIARLPSGLPVSLLTLYLDNNKISNIPDEYFKRFNALQYLRLSHNELADSGIPGNSFNVSSLVELDLSYNKLKNIPTVNENLENYYLEVNQLEKFDIKSFCKILGPLSYSKIKHLRLDGNRISETSLPPDMYECLRVANEVTLN	not soluble
MAHHHHHHMRCGGRWIVERSDGFVIEVEKPGVSVVFGRDIGLPSAQRMDGKYVSRQQFSVEWKASSLHVRQLGKNPTFYSMEFHTLPGDGTAEKELVCCREEETREGKQMGDGGKGLNVILVPPVSNENFLASLRGGAKGIEPATLHFPGELNLPRFTVRYVVADEKSSEEKISREMLTVPLGSSKSDEVEEDERANQPWMTGSWRGILDSVLHEQQQQQQQAER	not soluble
MGSDKIHHHHHHMSTDCLQELENALGRAALVRDEDRALYDVDWRGHLHGRSLAVVCPSRVEDVGETIRIARRHQISIVPQGGNTGLAGGATPDSTGRQLVLCTRRLNRIRGVDLLGNFITVDAGCILQNVQDAAQSHDRLFPLSLAAQGSCTIGGNLATNAGGNAVLRYGNMRELCVGIEAVDAQGRLIGDLKCVRKNNTGYSLRDLLIGSEGTLGIITGAALRLFPRPFAYATALVKCADIDHALQVLGILRAHCADFLSGVEWMSNGSLSNVSKQFLDTRIPPGFDESCLCLVELSGSTPPGLLDDILASALDQAITSGFAADAALASNLAERDAFWALRERLPLAEARCRSLKHDVSLPAGNMSEFVAHLEGYLSSMTLRCAWAGFGHLGDGNLHANVLIPDTMPDALCDCIDEFVYSEVLRLEGSISAEHGIGSRKNDLLHRALDVASLQAMQAVRNALDPHNLFNPGKLLFN	not soluble
MGQRGQVCQGRCMAEDQQSSQISDTVPALRRAVRILDLVAGSPRDLTAAELTRILDLPKSSAHGLLAVMTELDLLARSADGTLRIGPHSLRWANGFLSHLDIVSTFNDHLAQRHDLDPYTVTLTVREGGEVVYIGCRNSAQPLGHTFRIGMRLPAPFTATGKILLSDLGPGELRMLFSQFPQPLTSRSVAGLSQLEEELALTRARGYSIDDGQIREGMLCIGAAIRDYSGAASAGIAISLIRSEASDEKIASLGEELRTTANALSEKLGYRSQKD	not soluble
MGSDKIHHHHHHMKVLQFNQDATCCVVAASSHQISIFNCDPFGKCFEIDTKNSKKKTSNNNGSASNSESRNNEESILITNGSRDRTDAEEEEDNEDNALVTGNILKEGEFVIEMLFSTSLIAIADRGQGLNKGKKLKIVNTKRKCTICEIVFPHEIVDVVMNRKRMCVLLESDQIFIYDISCMKPLETIDLWEDHYKRSQANSFSNASNTGTLEGDSANLNRVATNLLANATQKSVNGSNPSVRTRRNSLRSKIRPRMVLSNDDRSILCFTAYSSPKKNKPNSEALYDVVIYDTLNVTPVNYLNSVHKGNVACLAVSHDGKLLATASDKGTIIRVFHTGVDSDYMSSRSLFKEFRRGTRLCNLYQLAFDKSMTMIGCVGDTDTIHLFKLDDASNSLPGDNSSNGHWNEEEYILASNSNPSMGTPKEIPLSKPRIANYFSKKIKSSIPNQNLSRNFAYITVNESNRSCLGFPDEFPNQVYIASDDGTFSIYSIPSKPGECVLTKNNKFT	not soluble
MNSPNILLDSFKIALVKKDSKQAFSLIERLSLEQIKSLDLDALLSLKEMIAQSIELLEKEKEELQLQMHKAKKIQKFLS	not soluble
MTDMTYTIALMGNPNTGKSTLFNVLTGLRQHTGNWPGKTVTHAEGECRHRGTLYRIVDLPGTYSLYSNSADEEVARDFLLFQRPDVTIVVVDATALERNLNLALQVLEMTDRVIIAINLMDEAKKKGIHINTKKLAAKLGVPVVPISARNREGIDALLDTVDAMAHGRINTNPLSIRYSPEIERGIAKLLPLVKDVMGDTYPARWIALRLLDGDTSLLQALKQPPQPLIKEGNAYACCGSVKSV	not soluble
RIQKLREATDKVASGDYDIHLENSYGDEIGVLASDFNIMAKKLKQSRDEIERLEKRRRQFIADVSHELKTPLTTINGLVEGLNSHTIPEDKKDKCFSLISEETKRMLRLVKENLDYEKIRSQQITLNKLDVPLIEVFEIVKEHLQQQAEEKQNKLMIQVEDHVIVHADYDRFIQILVNITKNSIQFTQNGDIWLRGMEGYKETIIEIEDTGIGIPKEDIEHIWERFYKADISRTNTAYGEYGLGLSIVRQLVEMHQGTVEIKSE	not soluble
MDNQPYNPLHGLTLKTIVTELEAYFGFETLGKTIKIKCFTDDPSIQSTLKFLRKTPWAREKVEQLYIKNKIKIQNSFESGDLDLEHHHHHH	not soluble
MSLTTGRISELLSPNYADLNDPRPIFDWMQVIRKRAVVYVGLDALSDTEVAAAVGNSMFSDLVSVAGHIYKHGVDDGLPGSLAGGKVRINLHADEFNELIGDEFIPMVNKAGGAGVQVTAYTQTMSDIEAKIGSRAKAGQIIGNFNNLFMLRVRETATAELLTNQLPKVQIYTSTPASGANDAINNKKAAFTSSSHDQVQMTSVPMLEPAHIVGLPKGQAFALLEGGNLWKIRMPLPAVDPDEVMPKSLQELAAGMRKGQAANSEGHHHHHH	not soluble
LSDVLVPTAGGLSSDLSAAVAKALEETFGVAVSLLHVVDPGEEESGRQFMYEWAAEHGLSDAELRIETGDIEATIERLGRDYSLVIVGATERGLLSRIVRGSLVFDVIETLDTPVLLAERPSSRSLRERLFGRE	not soluble
MLTDTAAEGLSDSEVGREEPATAEEEQREQQPEKFEEPVFSAELDEEQTAPESQTEAVSEDEKAKEPSDSPVYNHHENAAEGAESPFVQEEQMDIRQEEPLFTDHEYSSEALAQAETVAKESEEPSESIINNHYDTLGEAQETKIDVQPDSHTELEKTEHMEQGSKSSTATLENRQEIRADKPREASEEPKKRPGVQEKRTEQSASSQKGPSVPFNVMMLKRDTHKQQKAEERRGSYVFPNVALLDVPPAQVQDDTAWIEEQRQLLDLTLKNFNVRANVVHVTQGPSVTRFEVHPEPGVKVNKITNLSDDIKLSLSAKDIRIEAPIPGKNTIGIEVPNRTSKVVDLRQMIRSSAFRTSKSPLTAALGLDISGNPVVIDLKKMPHGLIAGATGSGKSVCINTILVSLLYKADPSEVKVLLIDPKMVELAPYNKIPHLVSPVITDAKAATAALKWVVEEMERRYELFAHSGVRDIDRFNQLTAEHQMGEKLPYLVVIIDELADLMMVAPNDVEESIARIAQKARACGIHLLVATQRPSVDVITGLIKANIPTRIAFSVSSQVDSRTIIDIAGAEKLLGKGDMLFLENGSGKPVRLQGNFVSDREIDRVVSHVRSQMPPTYLFEQEELVRQGSALKEEDELFYEACEFVVEQNSASTSSLQRRFRIGYNRAARLIDMMEAEGMISEAKGSKPREVLITASDLINE	not soluble
MRERTEARRRRIEEVLRRRQPDLTVLLENVHKPHNLSAILRTCDAVGVLEAHAVNPTGGVPTFNETSGGSHKWVYLRVHPDLHEAFRFLKERGFTVYATALREDARDFREVDYTKPTAVLFGAEKWGVSEEALALADGAIKIPMLGMVQSLNVSVAAAVILFEAQRQRLKAGLYDRPRLDPELYQKVLADWLRK	soluble
MKGTQMLALNKKCWDIVAPYFFQVDCLPKYGPYTASEDEIHLFDSIKGKKVLDIGCGSGHSLQYMAEHGAEELWGLDLSSTQIETAHETLQSWNPKLICGAMEEERDIPKGYFDIVYSIYALGWTSDLRKTLELIYSYVKPGGSFIFSWEHPVYSNLMYGTEEIAFSSSYHEETPITFETFKGEDVQATLYKRKMSTYINELNRVGFTIERIEEPLEHHHHHH	not soluble
